Assay results taken from US10456446B2, “Use of human small leucine zipper protein in osteogenesis procedure” (Korea University Research and Business Foundation, priority 2013, dated 2019).

Biological target: T1, HDAC3 (Homo sapiens, UniProt O15379)
T1 construct: expressed in transfected cells; host or cells: 293T
Assay: GST pull-down of sLZIP with HDAC3 in 293T cells
Type: binding
Procedure: 293T cells were obtained and washed with cold PBS. The cells were re-suspended in an IP lysis buffer [25 mM of Tris-HCl (pH 7.4), 150 mM of NaCl, 1 mM of EDTA, 1% NP-40 and 5% glycerol, and a protease inhibitor]. A suspension was centrifuged at 16,000×g for 20 minutes at 4° C. Supernatants were collected and incubated with 0.5 μg of appropriate antibodies and 25 μl of protein A/G-agarose or a GST Sepharose 4B bead for 24 hours at 4° C. A protein complex was centrifuged at 1,000×g with a cold IP lysis buffer for 1 minute and washed five times. The final pellet was re-suspended in 50 μl of an SDS-sample buffer containing 5% β-mercaptoethanol and heated for 10 minutes at 100° C. A protein sample was isolated in SDS-PAGE (8 to 10%) and transferred to nitrocellulose membranes. Co-precipitated proteins were detected according to western blotting using specific antibodies.
For this purpose, 293T cells were transiently transfected with PPARγ2 (0.5 μg), β-galactosidase (0.1 μg), FABP4-Luc reporter genes (0.2 μg) and sLZIP (0.1 μg). […] A promoter activity was measured according to luciferase analysis. […] After the transfection, the cells were stimulated with or without 10 nM of RZD, and a promoter activity was measured (FIG. 4B). […] GFP-sLZIP expression constructs were expressed in C3H10T1/2 cells, rabbit anti-HDAC3 antibodies and Texas Red-labeled anti-rabbit antibodies were used and analysis was performed under a fluorescence microscope. […] A protein complex was analyzed in SDS-PAGE, and anti-GST and anti-Flag antibodies were used for immunoblotting (FIG. 4E). *, P<0.05; **, P<0.01
For this purpose, 293T cells were transfected with GST-PPARγ2 and Flag-sLZIP and were treated or not treated with 10 nM of RZD for 24 hours. […] A protein complex was analyzed in SDS-PAGE, and immunoblotted with anti-GST and anti-Flag antibodies. […] The cell lysates were GST pull-down analyzed (FIG. 5C). […] The cell lysates were GST pull-down analyzed (FIG. 5D). […] A protein complex was analyzed in SDS-PAGE, and then immunoblotted with anti-NCoR1 and anti-Flag antibodies (FIG. 5E). […]

T1 sequence (O15379 whole entry, species assumed): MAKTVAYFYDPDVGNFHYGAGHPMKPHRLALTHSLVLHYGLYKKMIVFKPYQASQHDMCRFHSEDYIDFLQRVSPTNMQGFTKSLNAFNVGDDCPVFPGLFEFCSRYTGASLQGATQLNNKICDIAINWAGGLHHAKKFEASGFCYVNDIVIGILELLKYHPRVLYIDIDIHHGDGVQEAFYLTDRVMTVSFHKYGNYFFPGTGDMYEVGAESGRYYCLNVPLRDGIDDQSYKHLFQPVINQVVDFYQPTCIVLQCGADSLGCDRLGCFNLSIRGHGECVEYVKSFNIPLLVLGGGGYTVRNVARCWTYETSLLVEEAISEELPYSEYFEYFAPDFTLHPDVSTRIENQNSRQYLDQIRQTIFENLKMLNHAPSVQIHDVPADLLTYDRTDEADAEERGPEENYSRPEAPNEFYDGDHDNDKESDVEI

B1: sLZIP: human small leucine-zipper protein, isoform of LZIP, 354 amino acids, no transmembrane domain, GenBank FJ263669, SEQ ID NO: 1 (protein, listed as Homo sapiens)
chain: MELELDAGDQDLLAFLLEESGDLGTAPDEAVRAPLDWALPLSEVPSDWEVDDLLCSLLSPPASLNILSSSNPCLVHHDHTYSLPRETVSMDLESESCRKEGTQMTPQHMEELAEQEIARLVLTDEEKSLLEKEGLILPETLPLTKTEEQILKRVRRKIRNKRSAQESRRKKKVYVGGLESRVLKYTAQNMELQNKVQLLEEQNLSLLDQLRKLQAMVIEISNKTSSSSMYSSDTRGSLPAEHGVLSRQLRALPSEDPYQLELPALQSEVPKDSTHQWLDGSDCVLQAPGNTSCLLHYMPQAPSAEPPLEWPFPDLFSEPLCRGPILPLQANLTRKGGWLPTGSPSVILQDRYSG
10 nM RZD for 24 hours
  interaction with HDAC3: remained as being interacted with sLZIP
GST-HDAC3 and Flag-sLZIP, 293T cells, GST pull-down
  interaction with HDAC3: interacted with HDAC3
No RZD treated
  interaction with HDAC3 in a PPARγ2 corepressor complex: interacted with HDAC3
